Reference: patent US20140356358A1 (Amgen, published 2014)

B1: variant Fc-fragment Fc-5-69 (other)
chain: EPKSCDKTHTCPPCPAPELLGGPSVFLFPPKPKDTLMISRTPEVTCVVVDVSHEDPEVKFNWYVDGVEVHNAKTKPREEQYNSTYRVVSVLTVLHQDWLNGKEYKCKVSNKALPAPIEKTISKAKGQPREPQVYTLPPSRDELTKNQVSLTCLVKGFYPSDIAVEWESNGGCWPLQDYCGGGQPENNYKTTPPVLDSDGSFFLYSKLTVDKSRWQQGNVFSCSVMHEALHNHYTQKSLSLSPGK
notes: soluble elsewhere
B2: variant Fc-fragment 5-1-10 (other)
chain: EPKSCDKTHTCPPCPAPELLGGPSVFLFPPKPKDTLMISRTPEVTCVVVDVSHEDPEVKFNWYVDGVEVHNAKTKPREEQYNSTYRVVSVLTVLHQDWLNGKEYKCKVSNKALPAPIEKTISKAKGQPREPQVYTLPPSRDELTKNQVSLTCLVKGFYPSDIAVEWESGGGCGMPIEFCGGGPENNYKTTPPVLDSDGSFFLYSKLTVDKSRWQQGNVFSCSVMHEALHNHYTQKSLSLSPGK
B3: variant Fc-fragment 5-1-1 (other)
chain: EPKSCDKTHTCPPCPAPELLGGPSVFLFPPKPKDTLMISRTPEVTCVVVDVSHEDPEVKFNWYVDGVEVHNAKTKPREEQYNSTYRVVSVLTVLHQDWLNGKEYKCKVSNKALPAPIEKTISKAKGQPREPQVYTLPPSRDELTKNQVSLTCLVKGFYPSDIAVEWEGGCGMPIEFCGGSNGQPENNYKTTPPVLDSDGSFFLYSKLTVDKSRWQQGNVFSCSVMHEALHNHYTQKSLSLSPGK
B4: variant Fc-fragment 5-1-6 (other)
chain: EPKSCDKTHTCPPCPAPELLGGPSVFLFPPKPKDTLMISRTPEVTCVVVDVSHEDPEVKFNWYVDGVEVHNAKTKPREEQYNSTYRVVSVLTVLHQDWLNGKEYKCKVSNKALPAPIEKTISKAKGQPREPQVYTLPPSRDELTKNQVSLTCLVKGFYPSDIAVEWESNGQPEGGCGMPIEFCGGNNYKTTPPVLDSDGSFFLYSKLTVDKSRWQQGNVFSCSVMHEALHNHYTQKSLSLSPGK
B5: variant Fc-fragment 5-1-9 (other)
chain: EPKSCDKTHTCPPCPAPELLGGPSVFLFPPKPKDTLMISRTPEVTCVVVDVSHEDPEVKFNWYVDGVEVHNAKTKPREEQYNSTYRVVSVLTVLHQDWLNGKEYKCKVSNKALPAPIEKTISKAKGQPREPQVYTLPPSRDELTKNQVSLTCLVKGFYPSDIAVEWESGGCGMPIEFCGGPENNYKTTPPVLDSDGSFFLYSKLTVDKSRWQQGNVFSCSVMHEALHNHYTQKSLSLSPGK
B6: variant Fc-fragment 5-1-5 (other)
chain: EPKSCDKTHTCPPCPAPELLGGPSVFLFPPKPKDTLMISRTPEVTCVVVDVSHEDPEVKFNWYVDGVEVHNAKTKPREEQYNSTYRVVSVLTVLHQDWLNGKEYKCKVSNKALPAPIEKTISKAKGQPREPQVYTLPPSRDELTKNQVSLTCLVKGFYPSDIAVEWESNGQPGGCGMPIEFCGGENNYKTTPPVLDSDGSFFLYSKLTVDKSRWQQGNVFSCSVMHEALHNHYTQKSLSLSPGK
B7: variant Fc-fragment 5-1-2 (other)
chain: EPKSCDKTHTCPPCPAPELLGGPSVFLFPPKPKDTLMISRTPEVTCVVVDVSHEDPEVKFNWYVDGVEVHNAKTKPREEQYNSTYRVVSVLTVLHQDWLNGKEYKCKVSNKALPAPIEKTISKAKGQPREPQVYTLPPSRDELTKNQVSLTCLVKGFYPSDIAVEWESGGCGMPIEFCGGNGQPENNYKTTPPVLDSDGSFFLYSKLTVDKSRWQQGNVFSCSVMHEALHNHYTQKSLSLSPGK
B8: variant Fc-fragment 5-1-4 (other)
chain: EPKSCDKTHTCPPCPAPELLGGPSVFLFPPKPKDTLMISRTPEVTCVVVDVSHEDPEVKFNWYVDGVEVHNAKTKPREEQYNSTYRVVSVLTVLHQDWLNGKEYKCKVSNKALPAPIEKTISKAKGQPREPQVYTLPPSRDELTKNQVSLTCLVKGFYPSDIAVEWESNGQGGCGMPIEFCGGPENNYKTTPPVLDSDGSFFLYSKLTVDKSRWQQGNVFSCSVMHEALHNHYTQKSLSLSPGK
B9: variant Fc-fragment 5-1-3 (other)
chain: EPKSCDKTHTCPPCPAPELLGGPSVFLFPPKPKDTLMISRTPEVTCVVVDVSHEDPEVKFNWYVDGVEVHNAKTKPREEQYNSTYRVVSVLTVLHQDWLNGKEYKCKVSNKALPAPIEKTISKAKGQPREPQVYTLPPSRDELTKNQVSLTCLVKGFYPSDIAVEWESNGGGCGMPIEFCGGQPENNYKTTPPVLDSDGSFFLYSKLTVDKSRWQQGNVFSCSVMHEALHNHYTQKSLSLSPGK
B10: variant Fc-fragment Fc-5-69-W1Y (other)
chain: EPKSCDKTHTCPPCPAPELLGGPSVFLFPPKPKDTLMISRTPEVTCVVVDVSHEDPEVKFNWYVDGVEVHNAKTKPREEQYNSTYRVVSVLTVLHQDWLNGKEYKCKVSNKALPAPIEKTISKAKGQPREPQVYTLPPSRDELTKNQVSLTCLVKGFYPSDIAVEWESNGGCYPLQDYCGGGQPENNYKTTPPVLDSDGSFFLYSKLTVDKSRWQQGNVFSCSVMHEALHNHYTQKSLSLSPGK
notes: also called Fc-5-69-WIY
B11: variant Fc-fragment Fc-5-106-M4G (other)
chain: EPKSCDKTHTCPPCPAPELLGGPSVFLFPPKPKDTLMISRTPEVTCVVVDVSHEDPEVKFNWYVDGVEVHNAKTKPREEQYNSTYRVVSVLTVLHQDWLNGKEYKCKVSNKALPAPIEKTISKAKGQPREPQVYTLPPSRDELTKNQVSLTCLVKGFYPSDIAVEWESNGGCVFNGFNCGGGQPENNYKTTPPVLDSDGSFFLYSKLTVDKSRWQQGNVFSCSVMHEALHNHYTQKSLSLSPGK
B12: variant Fc-fragment Fc-5-106-M4H (other)
chain: EPKSCDKTHTCPPCPAPELLGGPSVFLFPPKPKDTLMISRTPEVTCVVVDVSHEDPEVKFNWYVDGVEVHNAKTKPREEQYNSTYRVVSVLTVLHQDWLNGKEYKCKVSNKALPAPIEKTISKAKGQPREPQVYTLPPSRDELTKNQVSLTCLVKGFYPSDIAVEWESNGGCVFNHFNCGGGQPENNYKTTPPVLDSDGSFFLYSKLTVDKSRWQQGNVFSCSVMHEALHNHYTQKSLSLSPGK
B13: variant Fc-fragment Fc-5-106-M4A (other)
chain: EPKSCDKTHTCPPCPAPELLGGPSVFLFPPKPKDTLMISRTPEVTCVVVDVSHEDPEVKFNWYVDGVEVHNAKTKPREEQYNSTYRVVSVLTVLHQDWLNGKEYKCKVSNKALPAPIEKTISKAKGQPREPQVYTLPPSRDELTKNQVSLTCLVKGFYPSDIAVEWESNGGCVFNAFNCGGGQPENNYKTTPPVLDSDGSFFLYSKLTVDKSRWQQGNVFSCSVMHEALHNHYTQKSLSLSPGK
B14: variant Fc-fragment Fc-5-106-M4N (other)
chain: EPKSCDKTHTCPPCPAPELLGGPSVFLFPPKPKDTLMISRTPEVTCVVVDVSHEDPEVKFNWYVDGVEVHNAKTKPREEQYNSTYRVVSVLTVLHQDWLNGKEYKCKVSNKALPAPIEKTISKAKGQPREPQVYTLPPSRDELTKNQVSLTCLVKGFYPSDIAVEWESNGGCVFNNFNCGGGQPENNYKTTPPVLDSDGSFFLYSKLTVDKSRWQQGNVFSCSVMHEALHNHYTQKSLSLSPGK
B15: variant Fc-fragment Fc-5-106-M4S (other)
chain: EPKSCDKTHTCPPCPAPELLGGPSVFLFPPKPKDTLMISRTPEVTCVVVDVSHEDPEVKFNWYVDGVEVHNAKTKPREEQYNSTYRVVSVLTVLHQDWLNGKEYKCKVSNKALPAPIEKTISKAKGQPREPQVYTLPPSRDELTKNQVSLTCLVKGFYPSDIAVEWESNGGCVFNSFNCGGGQPENNYKTTPPVLDSDGSFFLYSKLTVDKSRWQQGNVFSCSVMHEALHNHYTQKSLSLSPGK

Biological target: T1, human neonatal Fc receptor (hFcRn) (human, UniProt P55899 24-290; P61769 21-119)
T1 construct: Biotinylated in the ELISA, Octet and yeast assays; also called human FcRn; huFcRn
Test: phage ELISA pH 7.4;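 further: higher score means stronger binding and above about 3 to 5 exceeds background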

T1 sequence (P55899 24-290 limits assumed, chain 1 of 2): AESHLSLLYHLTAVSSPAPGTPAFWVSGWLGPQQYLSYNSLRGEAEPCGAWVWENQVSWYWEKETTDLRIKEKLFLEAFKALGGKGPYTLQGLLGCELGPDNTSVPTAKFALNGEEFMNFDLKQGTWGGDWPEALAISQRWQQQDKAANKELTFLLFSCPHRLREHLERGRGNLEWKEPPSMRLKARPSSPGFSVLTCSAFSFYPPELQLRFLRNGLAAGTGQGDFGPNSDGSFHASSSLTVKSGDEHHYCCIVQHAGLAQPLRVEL
T1 sequence (P61769 21-119 limits assumed, chain 2 of 2): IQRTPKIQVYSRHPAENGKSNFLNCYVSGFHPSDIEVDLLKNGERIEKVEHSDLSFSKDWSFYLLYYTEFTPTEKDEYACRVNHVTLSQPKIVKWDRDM

| Binder | ELISA score |
| --- | --- |
| B1 | 0.6 |

Biological target: T1, human neonatal Fc receptor (hFcRn)
Test: BLI (Octet), association pH 6, dissociation pH 7.4
Description: To further characterize some of the variant Fc-fragments identified by the phage ELISA, binding of the variant Fc-fragments to FcRn at pH 6 and 7.4 was characterized for a subset of the identified variant Fc-fragments. DNA encoding selected variant Fc-fragment isolates, all from library L5, was introduced into a mammalian expression vector, which was used to transfect 293 6E cells using deacylated PEI essentially as described by Thomas et al. (Proc. Natl. Acad. Sci. 102(16): 5679-5684, 2005), the relevant portions of which are incorporated herein by reference. […] Concentrations were calculated using a standard curve created with a purified Fc fusion protein.
Biotinylated hFcRn at 100 nM was captured on streptavidin (SA) biosensors (ForteBio Inc., 18-5019) off-line at RT for 2 hours. Using these biotinylated hFcRn-coated SA biosensors in the Octet Red® system, association and dissociation of unlabeled proteins can be detected in real time via […] of light. […] Three association and dissociation conditions were set up: (1) association at pH 6 and dissociation at pH 6; (2) association at pH 6 and dissociation at pH 7.4; and (3) association at pH 7.4 and dissociation at pH 7.4. SA biosensors coated with biotinylated hFcRN were dipped into buffer at a specific pH for 1 min and then soaked in the samples containing variant Fc-fragments or controls at a specific pH for 5 min to allow binding to FcRn. The Fc biosensors were then soaked in buffer at a specific pH for 5 minutes more to allow the bound Fc-fragments to dissociate from FcRn. Detection of binding and dissociation of the Fc-fragments was possible through the use of bio-layer interferometry as implemented using the Octet Red® system, so that binding and dissociation were detected in real time.

| Binder | binding result |
| --- | --- |
| B2 | binds |
| B3 | binds |
| B4 | binds |
| B5 | binds |
| B6 | binds |
| B7 | binds |
| B8 | binds |
| B9 | binds |

Biological target: T1, human neonatal Fc receptor (hFcRn)
Test: SPR competition pH 5.5

| Binder | EC50 [nM] |
| --- | --- |
| B10 | 140 |
| B11 | 100 |
| B12 | 100 |
| B13 | 27 |
| B1 | 20 |
| B14 | 100 |
| B15 | 58 |

Biological target: T2, cynomolgus monkey FcRn (cynomolgus monkey, UniProt Q8SPV9 24-297; Q8SPW0 21-119, limits assumed)
T2 construct: also called Cynomolgus FcRn
Test: SPR competition pH 5.5
Method: Binding of variant Fc-fragments to human and cynomolgus monkey FcRn was tested using a BIAcore® T100 analysis system (GE Healthcare Bio-Sciences AB Private Limited Liability Company, Uppsala, Sweden) at both pH 5.5 and pH 7.4. The test consisted of incubating various concentrations of the variant Fc-fragments or control Fc-fragments with a fixed amount of human or cynomolgus monkey FcRn under binding conditions and subsequently measuring the amount of free, unbound FcRn in these mixtures by binding to a surface (in a flow cell of a CM5 (Biacore) chip) on which an Fc-fragment was immobilized. […] Thus, the amount of unbound FcRn in the mixture was quantitatively ascertained by surface plasmon resonance through use of the BIAcore® T100 analysis system. […] Initially, a group of 23 variant-Fc-fragments (Fc-5-1 being considered a control) identified in the experiments described above were tested for binding to human FcRn.
To obtain a reasonable signal for the different molecules and conditions tested, different assay conditions were used. For assays at pH 5.5, 10 nM of human or cynomolgus monkey FcRn was mixed with serial dilutions of the variant and control Fc-fragments being tested (which ranged from 0.1˜2,000 nM) and incubated for 1 hour at room temperature in 10 mM sodium acetate, pH 5.5, 150 mM NaCl, 0.005% P20, 0.1 mg/mL BSA. As positive controls, […] human and cynomolgus monkey FcRn were each incubated in the same solution, for the same time, and at the same temperature described immediately above, but without an added Fc-fragment.

T2 sequence (Q8SPV9 24-297 limits assumed, chain 1 of 2): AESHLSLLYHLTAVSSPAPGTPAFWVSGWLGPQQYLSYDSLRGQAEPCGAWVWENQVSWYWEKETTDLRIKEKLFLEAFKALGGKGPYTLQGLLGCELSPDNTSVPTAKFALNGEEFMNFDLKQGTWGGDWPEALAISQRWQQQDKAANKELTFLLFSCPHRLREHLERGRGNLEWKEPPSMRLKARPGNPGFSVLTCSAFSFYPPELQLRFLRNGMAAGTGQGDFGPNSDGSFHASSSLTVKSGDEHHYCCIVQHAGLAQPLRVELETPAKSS
T2 sequence (Q8SPW0 21-119 limits assumed, chain 2 of 2): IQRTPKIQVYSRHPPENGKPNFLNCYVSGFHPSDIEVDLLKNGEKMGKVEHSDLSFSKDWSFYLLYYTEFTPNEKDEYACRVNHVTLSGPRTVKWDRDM

| Binder | EC50 [nM] |
| --- | --- |
| B1 | 18 |

Biological target: T1, human neonatal Fc receptor (hFcRn)
Test: phage ELISA pH 6;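 further: higher score means stronger binding and above about 3 to 5 exceeds background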

| Binder | ELISA score |
| --- | --- |
| B1 | 76.7 |
